{"source": "patent US20060030527A1", "about": "(TRANSTECH PHARMA, published 2006)", "binders": {"B1": {"name": "RAGE fusion protein TTP-3000 (Fc fusion)", "chain": "AQNITARIGEPLVLKCKGAPKKPPQRLEWKLNTGRTEAWKVLSPQGGGPWDSVARVLPNGSLFLPAVGIQDEGIFRCQAMNRNGKETKSNYRVRVYQIPGKPEIVDSASELTAGPSVFLFPPKPKDTLMISRTPEVTCVVVDVSHEDPEVKFNWYVDGVEVHNAKTKPREEQYNSTYRVVSVLTVLHQDWLNGKEYKCKVSNKALPAPIEKTISKAKGQPREPQVYTLPPSRDELTKNQVSLTCLVKGFYPSDIAVEWESNGQPENNYKTTPPVLDSDGSFFLYSKLTVDKSRWQQGNVFSCSVMHEALHNHYTQKSLSLSPGK", "notes": "also called TT3; three domain RAGE fusion protein"}, "B2": {"name": "RAGE fusion protein TTP-4000 (Fc fusion)", "chain": "AQNITARIGEPLVLKCKGAPKKPPQRLEWKLNTGRTEAWKVLSPQGGGPWDSVARVLPNGSLFLPAVGIQDEGIFRCQAMNRNGKETKSNYRVRVYQIPGKPEIVDSASELTAGVPNKVGTCVSEGSYPAGTLSWHLDGKPLVPNEKGVSVKEQTRRHPETGLFTLQSELMVTPARGGDPRPTFSCSFSPGLPRHRALRTAPIQPRVWEPVPLEEVQLVVEPEGGAVAPPSVFLFPPKPKDTLMISRTPEVTCVVVDVSHEDPEVKFNWYVDGVEVHNAKTKPREEQYNSTYRVVSVLTVLHQDWLNGKEYKCKVSNKALPAPIEKTISKAKGQPREPQVYTLPPSRDELTKNQVSLTCLVKGFYPSDIAVEWESNGQPENNYKTTPPVLDSDGSFFLYSKLTVDKSRWQQGNVFSCSVMHEALHNHYTQKSLSLSPGK", "notes": "No immunoglobulin hinge; also called TT4; four domain RAGE fusion protein"}}, "key": {"BSA": {"target": "T1, BSA (UniProt P02769 25-607)", "T1 construct": "also called BSA coating alone; BSA+wash", "T1 sequence (P02769 25-607 limits assumed)": "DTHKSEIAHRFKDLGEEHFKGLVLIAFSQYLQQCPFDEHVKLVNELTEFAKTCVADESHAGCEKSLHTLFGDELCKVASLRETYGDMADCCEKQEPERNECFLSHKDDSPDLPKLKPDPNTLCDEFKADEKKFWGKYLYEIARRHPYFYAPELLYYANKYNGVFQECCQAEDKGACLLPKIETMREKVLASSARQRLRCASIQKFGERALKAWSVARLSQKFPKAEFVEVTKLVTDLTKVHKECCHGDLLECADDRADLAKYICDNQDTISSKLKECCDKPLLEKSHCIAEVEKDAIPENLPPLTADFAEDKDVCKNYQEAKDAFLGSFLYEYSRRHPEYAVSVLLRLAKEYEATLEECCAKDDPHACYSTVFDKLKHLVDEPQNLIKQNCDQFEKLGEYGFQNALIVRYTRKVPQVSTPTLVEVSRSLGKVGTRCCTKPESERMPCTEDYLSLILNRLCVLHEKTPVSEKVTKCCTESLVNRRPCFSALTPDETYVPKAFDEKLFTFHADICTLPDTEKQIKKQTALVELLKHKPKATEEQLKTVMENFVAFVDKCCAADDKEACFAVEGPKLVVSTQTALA", "assay": "ELISA on coated Maxisorb plates, absorbance at 405 nm", "protocol": "(§1) Known RAGE ligands were coated onto the surface of Maxisorb plates at a concentration of 5 micrograms per well. Plates were incubated at 4° C. overnight. Following ligand incubation, plates were aspirated and a blocking buffer of 1% BSA in 50 mM imidizole buffer (pH 7.2) was added to the plates for 1 hour at room temperature. The plates were then aspirated and/or washed with wash buffer (20 mM Imidizole, 150 mM NaCl, 0.05% Tween-20, 5 mM CaCl₂ and 5 mM MgCl₂, pH 7.2). […] The fusion protein was added at increasing dilutions of the initial sample. The RAGE fusion protein was allowed to incubate with the immobilized ligand at 37° C. for one hour after which the plate was washed and assayed for binding of the fusion protein. Binding was detected by the addition of an immunodetection complex containing a monoclonal mouse anti-human IgG1 diluted 1:11,000 to a final assay concentration (FAC) of 21 ng/100 μL, a biotinylated goat anti-mouse IgG diluted 1:500, to a FAC of […], and an avidin-linked alkaline phosphatase. […] Binding of the complex to the immobilized fusion protein was quantified by measuring conversion of PNPP to para-nitrophenol (PNP) which was measured spectrophotometrically at 405 nm."}, "[1]": {"target": "T2, Amyloid Beta (1-40) from Biosource (UniProt P05067 672-711)", "T2 construct": "domain: Amyloid Beta (1-40); Immobilised on Maxisorb plates; amyloid beta 1-40 is a fragment of it; also called Abeta; A-beta", "T2 sequence (P05067 672-711 limits assumed)": "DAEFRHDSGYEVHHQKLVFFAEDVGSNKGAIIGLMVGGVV", "assay": "ELISA, immobilised ligand, dilutions of a 1.082 mg/mL solution", "protocol": "as §1"}, "[2]": {"target": "T2, Amyloid Beta (1-40) from Biosource", "assay": "ELISA, ligand coated on Maxisorb plate, fusion protein detected through anti-human IgG1 complex", "protocol": "as §1"}}}
{"binder": "B1", "values": [{"measurement": "binding result", "setting": "BSA", "result": "no binding"}, {"measurement": "binding result", "setting": "[1]", "result": "binds"}]}
{"binder": "B2", "values": [{"measurement": "binding result", "setting": "BSA", "result": "no binding"}, {"measurement": "binding result", "setting": "[2]", "result": "binds"}]}
